Test results reported in the supplement of paper PMC7877785.
± gives the uncertainty stated by the source.

Test: self-splicing fitness, log relative to wild type (ln ratio); higher = more splicing; Tetrahymena group I intron in knt gene, E. coli kanamycin selection, DiMSum; sequences stand for … in CUCUCU…GGAGGGAAAAGUUAUCAGGCAUGCACCUGGUAGCUAGUCUUUAAACCAAUAGAUUGCAUCGGUUUAAAAGGCAAGACCGUCAAAUUGCGGGAAAGGGGUCAACAGCCGUUCAGUACCAAGUCUCAGGGGAAACUUUGAGAUGGCCUUGCAAAGGGUAUGGUAAUAAGCUGACGGACAUGGUCCUAACCACGCAGCCAAGUCCUAAGUCAACAGAUCUUCUGUUGAUAUGGAUGCAGUUCACAGACUAAAUGUCGGUCGGGGAAGAUGUAUUCUUCUCAUAAGAUAUAGUCGGACCUCUCCUUAAUGGGAGCUAGCGGAUGAAGUGAUGCAACACUGGAGCCGCUGGGAACUAAUUUGUAUGCGAAAGUAUAUUGAUUAGUUUUGGAGUACUCGUGGUCG
Procedure, shortened: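 Library with all eight P1ex-region intron nucleotides randomised, intron inside the knt kanamycin-resistance gene on pET-22b(+), in E. coli BL21(DE3). Cells grew overnight at 37°C or 30°C on LB agar with or without 25 μg/mL kanamycin (plus 100 μg/mL carbenicillin, 50 μM IPTG, 0.2% rhamnose), in six replicate transformations. Pooled colonies were amplicon-sequenced on Illumina HiSeq 2500. DiMSum fitness is the error-weighted combination of wild-type-normalised replicate fold changes, kanamycin versus none.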

## CCAAAGCAAUAUUACGCUUU
30 °C
  self-splicing fitness (ln): -3.57 ± 0.16
37 °C
  self-splicing fitness (ln): -2.73 ± 0.21

## CCAAAGCAAUAUUACGGACC
37 °C
  self-splicing fitness (ln): -1.51 ± 0.29

## CCAAAGCAAUAUUACGGACU
30 °C
  self-splicing fitness (ln): -2.27 ± 0.13
37 °C
  self-splicing fitness (ln): -2.84 ± 0.22

## CCAAAGCAAUAUUACGGAGA
30 °C
  self-splicing fitness (ln): -4.23 ± 0.42
37 °C
  self-splicing fitness (ln): -1.92 ± 0.23

## CCAAAGCAAUAUUACGGAUC
30 °C
  self-splicing fitness (ln): -3.45 ± 0.23
37 °C
  self-splicing fitness (ln): -2.47 ± 0.39

## CCAAAGCAAUAUUACGGCAA
30 °C
  self-splicing fitness (ln): -3.15 ± 0.27
37 °C
  self-splicing fitness (ln): -2.73 ± 0.25

## CCAAAGCAAUAUUACGGCCU
30 °C
  self-splicing fitness (ln): -3.59 ± 0.18
37 °C
  self-splicing fitness (ln): -3.33 ± 0.37

## CCAAAGCAAUAUUACGGCGA
30 °C
  self-splicing fitness (ln): -3.26 ± 0.21
37 °C
  self-splicing fitness (ln): -3.01 ± 0.19

## CCAAAGCAAUAUUACGGGCC
30 °C
  self-splicing fitness (ln): -2.51 ± 0.46
37 °C
  self-splicing fitness (ln): -2.23 ± 0.42

## CCAAAGCAAUAUUACGGGCU
30 °C
  self-splicing fitness (ln): -2.45 ± 0.13
37 °C
  self-splicing fitness (ln): -3.3 ± 0.23

## CCAAAGCAAUAUUACGGUAA
30 °C
  self-splicing fitness (ln): -3.35 ± 0.29
37 °C
  self-splicing fitness (ln): -2.91 ± 0.23

## CCAAAGCAAUAUUACGGUCA
30 °C
  self-splicing fitness (ln): -3.54 ± 0.35
37 °C
  self-splicing fitness (ln): -1.78 ± 0.25

## CCAAAGCAAUAUUACGUCGA
30 °C
  self-splicing fitness (ln): -3.66 ± 0.15
37 °C
  self-splicing fitness (ln): -2.92 ± 0.18

## CCAAAGCAAUAUUACGUGGC
30 °C
  self-splicing fitness (ln): -1.62 ± 0.098
37 °C
  self-splicing fitness (ln): -2.29 ± 0.21

## CCAAAGCAAUAUUACGUUCC
30 °C
  self-splicing fitness (ln): -3.37 ± 0.24
37 °C
  self-splicing fitness (ln): -2.93 ± 0.32

## CCACAGCAAUAUUACGAACC
30 °C
  self-splicing fitness (ln): -3.86 ± 0.32
37 °C
  self-splicing fitness (ln): -2.46 ± 0.35

## CCACAGCAAUAUUACGACAU
30 °C
  self-splicing fitness (ln): -3.702 ± 0.019
37 °C
  self-splicing fitness (ln): -2.84 ± 0.037

## CCACAGCAAUAUUACGACCA
30 °C
  self-splicing fitness (ln): -3.99 ± 0.36
37 °C
  self-splicing fitness (ln): -1.28 ± 0.2

## CCACAGCAAUAUUACGACCU
30 °C
  self-splicing fitness (ln): -3.94 ± 0.3
37 °C
  self-splicing fitness (ln): -2.82 ± 0.18

## CCACAGCAAUAUUACGACGU
30 °C
  self-splicing fitness (ln): -3.18 ± 0.18
37 °C
  self-splicing fitness (ln): -2.52 ± 0.15

## CCACAGCAAUAUUACGAGCC
30 °C
  self-splicing fitness (ln): -3.22 ± 0.42
37 °C
  self-splicing fitness (ln): -2.3 ± 0.31

## CCACAGCAAUAUUACGAGGC
30 °C
  self-splicing fitness (ln): -3.21 ± 0.14
37 °C
  self-splicing fitness (ln): -2.37 ± 0.21

## CCACAGCAAUAUUACGAGUA
30 °C
  self-splicing fitness (ln): -3.68 ± 0.2
37 °C
  self-splicing fitness (ln): -2.31 ± 0.19

## CCACAGCAAUAUUACGCCCA
30 °C
  self-splicing fitness (ln): -2.81 ± 0.14
37 °C
  self-splicing fitness (ln): -2.36 ± 0.16

## CCACAGCAAUAUUACGCGCG
30 °C
  self-splicing fitness (ln): -1.02 ± 0.042
37 °C
  self-splicing fitness (ln): -0.161 ± 0.056

## CCACAGCAAUAUUACGCUGU
30 °C
  self-splicing fitness (ln): -4.34 ± 0.18
37 °C
  self-splicing fitness (ln): -3.31 ± 0.27

## CCACAGCAAUAUUACGGAAU
30 °C
  self-splicing fitness (ln): -3.23 ± 0.17
37 °C
  self-splicing fitness (ln): -2.21 ± 0.18

## CCACAGCAAUAUUACGGACC
30 °C
  self-splicing fitness (ln): -4.45 ± 0.31
37 °C
  self-splicing fitness (ln): -1.54 ± 0.22

## CCACAGCAAUAUUACGGAGC
30 °C
  self-splicing fitness (ln): -3.58 ± 0.14
37 °C
  self-splicing fitness (ln): -2.99 ± 0.19

## CCACAGCAAUAUUACGGGCA
30 °C
  self-splicing fitness (ln): -3.53 ± 0.15
37 °C
  self-splicing fitness (ln): -2.92 ± 0.15

## CCACAGCAAUAUUACGGGCG
30 °C
  self-splicing fitness (ln): -0.605 ± 0.065
37 °C
  self-splicing fitness (ln): 0.193 ± 0.087

## CCACAGCAAUAUUACGGUUA
30 °C
  self-splicing fitness (ln): -3.14 ± 0.15
37 °C
  self-splicing fitness (ln): -2.7 ± 0.16

## CCACAGCAAUAUUACGUAGU
30 °C
  self-splicing fitness (ln): -3.22 ± 0.14
37 °C
  self-splicing fitness (ln): -2.94 ± 0.19

## CCACAGCAAUAUUACGUCAG
30 °C
  self-splicing fitness (ln): -0.817 ± 0.057
37 °C
  self-splicing fitness (ln): -0.131 ± 0.071

## CCAGAGCAAUAUUACGAAAA
30 °C
  self-splicing fitness (ln): -2.94 ± 0.32
37 °C
  self-splicing fitness (ln): -1.54 ± 0.35

## CCAGAGCAAUAUUACGACGA
30 °C
  self-splicing fitness (ln): -2.94 ± 0.25
37 °C
  self-splicing fitness (ln): -2.34 ± 0.3

## CCAGAGCAAUAUUACGAGUC
30 °C
  self-splicing fitness (ln): -2 ± 0.19
37 °C
  self-splicing fitness (ln): -1.69 ± 0.28

## CCAGAGCAAUAUUACGAUAU
30 °C
  self-splicing fitness (ln): -2.51 ± 0.23
37 °C
  self-splicing fitness (ln): -3.19 ± 0.37

## CCAGAGCAAUAUUACGAUGG
30 °C
  self-splicing fitness (ln): -4.18 ± 0.34
37 °C
  self-splicing fitness (ln): -2.04 ± 0.27

## CCAGAGCAAUAUUACGAUUC
30 °C
  self-splicing fitness (ln): -4.06 ± 0.22
37 °C
  self-splicing fitness (ln): -2.67 ± 0.21

## CCAGAGCAAUAUUACGCAUA
30 °C
  self-splicing fitness (ln): -3.74 ± 0.23
37 °C
  self-splicing fitness (ln): -2.48 ± 0.24

## CCAGAGCAAUAUUACGCCGC
37 °C
  self-splicing fitness (ln): -0.773 ± 0.45

## CCAGAGCAAUAUUACGCGCU
30 °C
  self-splicing fitness (ln): -2.97 ± 0.24
37 °C
  self-splicing fitness (ln): -1.89 ± 0.34

## CCAGAGCAAUAUUACGCUUU
30 °C
  self-splicing fitness (ln): -3.36 ± 0.27
37 °C
  self-splicing fitness (ln): -1.71 ± 0.17

## CCAGAGCAAUAUUACGGAAA
30 °C
  self-splicing fitness (ln): -3.62 ± 0.32
37 °C
  self-splicing fitness (ln): -2.19 ± 0.27

## CCAGAGCAAUAUUACGGAGU
30 °C
  self-splicing fitness (ln): -3.32 ± 0.21
37 °C
  self-splicing fitness (ln): -3.21 ± 0.28

## CCAGAGCAAUAUUACGGGUU
30 °C
  self-splicing fitness (ln): -3.1 ± 0.23
37 °C
  self-splicing fitness (ln): -2.63 ± 0.26

## CCAGAGCAAUAUUACGUCUC
30 °C
  self-splicing fitness (ln): -3.23 ± 0.15
37 °C
  self-splicing fitness (ln): -2.78 ± 0.23
